# Target: T1, human insulin receptor (human IR-A) (Homo sapiens, UniProt P06213)
# T1 construct: solubilized human IR (holoreceptor); expressed in transfected cells; host or cells: baby hamster kidney (BHK) cells, stably transfected (pZem vector); detergent-solubilised and semipurified on wheat germ agglutinin
# Test: Insulin receptor binding assay (SPA, on solubilised insulin receptor)
# Conditions: comparison table of side chain and parent insulin mutations (rel. to HI)
# Method: Insulin Receptor Binding Assay (on Solubilised Insulin Receptor)
# Competition binding experiments were performed in 96-well plates (polystyrene Optiplate-96, PerkinElmer) on an Eppendorf epMotion 5075 robot using solubilized human IR (holoreceptor) semipurified by wheat germ agglutinin purification from baby hamster kidney (BHK) cells, which were stably transfected with the pZem vector containing the human IR-A or IR-B insert.
# T1 sequence (P06213 28-746 isoform P06213-2 limits assumed): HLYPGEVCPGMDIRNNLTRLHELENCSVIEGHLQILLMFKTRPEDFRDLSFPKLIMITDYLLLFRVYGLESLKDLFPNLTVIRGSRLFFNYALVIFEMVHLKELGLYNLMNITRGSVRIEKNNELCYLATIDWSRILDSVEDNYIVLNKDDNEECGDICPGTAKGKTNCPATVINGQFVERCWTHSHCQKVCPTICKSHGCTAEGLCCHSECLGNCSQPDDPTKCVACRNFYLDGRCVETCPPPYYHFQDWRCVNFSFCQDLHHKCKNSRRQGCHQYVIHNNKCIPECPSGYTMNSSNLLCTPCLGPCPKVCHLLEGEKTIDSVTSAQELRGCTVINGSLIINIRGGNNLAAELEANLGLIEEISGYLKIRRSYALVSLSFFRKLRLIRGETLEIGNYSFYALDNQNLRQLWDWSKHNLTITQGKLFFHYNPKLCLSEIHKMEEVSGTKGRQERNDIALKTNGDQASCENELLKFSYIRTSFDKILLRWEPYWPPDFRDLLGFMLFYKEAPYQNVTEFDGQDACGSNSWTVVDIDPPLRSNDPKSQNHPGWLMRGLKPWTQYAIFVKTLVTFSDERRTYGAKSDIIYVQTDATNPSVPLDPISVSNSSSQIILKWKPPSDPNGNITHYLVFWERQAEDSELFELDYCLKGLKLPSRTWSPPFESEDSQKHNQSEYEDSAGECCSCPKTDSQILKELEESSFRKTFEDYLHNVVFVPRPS
# T1 sequence (P06213 763-1382 partner limits assumed): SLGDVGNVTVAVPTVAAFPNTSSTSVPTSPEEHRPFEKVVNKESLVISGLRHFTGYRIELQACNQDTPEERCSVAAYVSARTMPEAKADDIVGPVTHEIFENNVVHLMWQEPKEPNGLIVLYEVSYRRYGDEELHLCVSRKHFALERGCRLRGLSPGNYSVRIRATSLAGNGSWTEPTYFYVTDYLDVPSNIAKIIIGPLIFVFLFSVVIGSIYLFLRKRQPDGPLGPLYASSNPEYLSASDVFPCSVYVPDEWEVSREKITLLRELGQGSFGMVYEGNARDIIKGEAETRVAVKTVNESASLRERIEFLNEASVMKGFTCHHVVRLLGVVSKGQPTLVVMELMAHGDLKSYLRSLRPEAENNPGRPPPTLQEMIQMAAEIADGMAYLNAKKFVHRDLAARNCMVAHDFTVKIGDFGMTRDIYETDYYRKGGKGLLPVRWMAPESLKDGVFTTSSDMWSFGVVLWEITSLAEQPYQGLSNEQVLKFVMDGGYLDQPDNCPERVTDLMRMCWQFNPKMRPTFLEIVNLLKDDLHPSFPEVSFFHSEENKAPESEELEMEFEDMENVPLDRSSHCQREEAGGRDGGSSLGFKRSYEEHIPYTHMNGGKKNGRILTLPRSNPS
substance,measurement,setting,value
"C18-gGlu- desB30: desB30 human insulin with side chain C18-gGlu- (cell cut off), no additional disulfide bond",Relative IR-A affinity SPA assay (@ 0% HSA),0% HSA,10.4
same,Relative IR-A affinity SPA assay (@ […],[…] (HSA),0.70

# From patent publication US9512195B2, “Insulin derivatives containing additional disulfide bonds” (Novo Nordisk A/S, priority 2010, dated 2016)
